# From patent publication US20220273789A1
# What was measured:
# human IgG (human) [1] = test: BLI (Octet), gEgI on Ni-NTA sensor, hIgG in solution; as to Response: test concentration or dose not given here
# human IgG (human) [2] = test: BLI Octet, construct on Ni-NTA sensor, hIgG in solution
Substance,Kd (human IgG (human) [1]),Response (human IgG (human) [1]),koff (human IgG (human) [1]),kon (human IgG (human) [1]),Kd (human IgG (human) [2]),Response (nm) (human IgG (human) [2]),koff (human IgG (human) [2]),kon (human IgG (human) [2])
HSV2-gE_H245S P319G_gI (from UniProt P89475 21-416; P06764 21-256) (receptor),363 nM,0.313 nm,0.0027 s⁻¹,7440 M⁻¹ s⁻¹,–,–,–,–
HSV2-gE_H245S P319L_gI (from UniProt P89475 21-416; P06764 21-256) (receptor),292 nM,0.323 nm,0.0019 s⁻¹,6520 M⁻¹ s⁻¹,–,–,–,–
HSV2-gE_P317F S338G_gI (from UniProt P89475 21-416; P06764 21-256) (receptor),399 nM,0.153 nm,0.00248 s⁻¹,6220 M⁻¹ s⁻¹,–,–,–,–
HSV2-gE_P317F S338H_gI (from UniProt P89475 21-416; P06764 21-256) (receptor),339 nM,0.182 nm,0.00167 s⁻¹,4910 M⁻¹ s⁻¹,–,–,–,–
HSV2-gE_P317F S338L_gI (from UniProt P89475 21-416; P06764 21-256) (receptor),225 nM,0.442 nm,0.00165 s⁻¹,7370 M⁻¹ s⁻¹,–,–,–,–
HSV2-gE_P317F V340M_gI (from UniProt P89475 21-416; P06764 21-256) (receptor),291 nM,0.259 nm,0.00189 s⁻¹,6510 M⁻¹ s⁻¹,–,–,–,–
HSV2-gE_P317F V340R_gI (from UniProt P89475 21-416; P06764 21-256) (receptor),372 nM,0.301 nm,0.00218 s⁻¹,5880 M⁻¹ s⁻¹,–,–,–,–
HSV2-gE_P318S_gI (from UniProt P89475 21-416; P06764 21-256) (receptor),–,–,–,–,9900 nM,0.124 nm,0.00504 s⁻¹,509 M⁻¹ s⁻¹
HSV2-gE_P318T_gI (from UniProt P89475 21-416; P06764 21-256) (receptor),–,–,–,–,14900 nM,0.174 nm,0.00711 s⁻¹,478 M⁻¹ s⁻¹
HSV2-gE_P318Y_gI (from UniProt P89475 21-416; P06764 21-256) (receptor),–,–,–,–,< 0.001 nM,0.0215 nm,< 1e-07 s⁻¹,3480 M⁻¹ s⁻¹
HSV2-gE_P319L_gI (from UniProt P89475 21-416; P06764 21-256) (receptor),–,–,–,–,1390 nM,0.328 nm,0.00444 s⁻¹,3190 M⁻¹ s⁻¹
HSV2-gE_R314A_gI (from UniProt P89475 21-416; P06764 21-256) (receptor),–,–,–,–,468 nM,0.629 nm,0.00557 s⁻¹,11900 M⁻¹ s⁻¹
HSV2-gE_R314D_gI (from UniProt P89475 21-416; P06764 21-256) (receptor),–,–,–,–,900 nM,0.385 nm,0.00583 s⁻¹,6480 M⁻¹ s⁻¹
HSV2-gE_R314E_gI (from UniProt P89475 21-416; P06764 21-256) (receptor),–,–,–,–,1300 nM,0.306 nm,0.0058 s⁻¹,4470 M⁻¹ s⁻¹
HSV2-gE_R314F_gI (from UniProt P89475 21-416; P06764 21-256) (receptor),–,–,–,–,884 nM,0.325 nm,0.0048 s⁻¹,5430 M⁻¹ s⁻¹
HSV2-gE_R314G_gI (from UniProt P89475 21-416; P06764 21-256) (receptor),–,–,–,–,572 nM,0.478 nm,0.0052 s⁻¹,9080 M⁻¹ s⁻¹
HSV2-gE_R314I_gI (from UniProt P89475 21-416; P06764 21-256) (receptor),–,–,–,–,658 nM,0.446 nm,0.00556 s⁻¹,8450 M⁻¹ s⁻¹
HSV2-gE_R314K_gI (from UniProt P89475 21-416; P06764 21-256) (receptor),–,–,–,–,583 nM,0.461 nm,0.00549 s⁻¹,9420 M⁻¹ s⁻¹
HSV2-gE_R314L_gI (from UniProt P89475 21-416; P06764 21-256) (receptor),–,–,–,–,702 nM,0.442 nm,0.00521 s⁻¹,7430 M⁻¹ s⁻¹
HSV2-gE_R314M_gI (from UniProt P89475 21-416; P06764 21-256) (receptor),–,–,–,–,608 nM,0.519 nm,0.00592 s⁻¹,9730 M⁻¹ s⁻¹
HSV2-gE_R314N_gI (from UniProt P89475 21-416; P06764 21-256) (receptor),–,–,–,–,1310 nM,0.301 nm,0.00748 s⁻¹,5700 M⁻¹ s⁻¹
HSV2-gE_R314P_gI (from UniProt P89475 21-416; P06764 21-256) (receptor),–,–,–,–,443 nM,0.557 nm,0.00474 s⁻¹,10700 M⁻¹ s⁻¹
HSV2-gE_R314Q_gI (from UniProt P89475 21-416; P06764 21-256) (receptor),–,–,–,–,498 nM,0.568 nm,0.00535 s⁻¹,10800 M⁻¹ s⁻¹
HSV2-gE_R314S_gI (from UniProt P89475 21-416; P06764 21-256) (receptor),–,–,–,–,406 nM,0.585 nm,0.00515 s⁻¹,12700 M⁻¹ s⁻¹

Substance,Kd (human IgG (human) [1]),Response (human IgG (human) [1]),koff (human IgG (human) [1]),kon (human IgG (human) [1]),Kd (human IgG (human) [2]),Response (nm) (human IgG (human) [2]),koff (human IgG (human) [2]),kon (human IgG (human) [2])
HSV2-gE_R314T_gI (from UniProt P89475 21-416; P06764 21-256) (receptor),–,–,–,–,575 nM,0.417 nm,0.0049 s⁻¹,8530 M⁻¹ s⁻¹
HSV2-gE_R314V_gI (from UniProt P89475 21-416; P06764 21-256) (receptor),–,–,–,–,538 nM,0.408 nm,0.00487 s⁻¹,9070 M⁻¹ s⁻¹
HSV2-gE_R314Y_gI (from UniProt P89475 21-416; P06764 21-256) (receptor),–,–,–,–,600 nM,0.385 nm,0.00441 s⁻¹,7350 M⁻¹ s⁻¹
HSV2-gE_R320A_gI (from UniProt P89475 21-416; P06764 21-256) (receptor),–,–,–,–,1500 nM,0.295 nm,0.00505 s⁻¹,3360 M⁻¹ s⁻¹
HSV2-gE_R320G_gI (from UniProt P89475 21-416; P06764 21-256) (receptor),–,–,–,–,1180 nM,0.322 nm,0.00462 s⁻¹,3920 M⁻¹ s⁻¹
HSV2-gE_R320H_gI (from UniProt P89475 21-416; P06764 21-256) (receptor),–,–,–,–,4750 nM,0.247 nm,0.00421 s⁻¹,886 M⁻¹ s⁻¹
HSV2-gE_R320I_gI (from UniProt P89475 21-416; P06764 21-256) (receptor),–,–,–,–,406 nM,0.622 nm,0.00438 s⁻¹,10800 M⁻¹ s⁻¹
HSV2-gE_R320L_gI (from UniProt P89475 21-416; P06764 21-256) (receptor),–,–,–,–,291 nM,0.785 nm,0.00389 s⁻¹,13400 M⁻¹ s⁻¹
HSV2-gE_R320M_gI (from UniProt P89475 21-416; P06764 21-256) (receptor),–,–,–,–,336 nM,0.722 nm,0.00462 s⁻¹,13700 M⁻¹ s⁻¹
HSV2-gE_R320N_gI (from UniProt P89475 21-416; P06764 21-256) (receptor),–,–,–,–,828 nM,0.379 nm,0.00493 s⁻¹,5950 M⁻¹ s⁻¹
HSV2-gE_R320P_gI (from UniProt P89475 21-416; P06764 21-256) (receptor),–,–,–,–,1650 nM,0.267 nm,0.00235 s⁻¹,1420 M⁻¹ s⁻¹
HSV2-gE_R320Q_gI (from UniProt P89475 21-416; P06764 21-256) (receptor),–,–,–,–,902 nM,0.351 nm,0.00539 s⁻¹,5980 M⁻¹ s⁻¹
HSV2-gE_R320S_gI (from UniProt P89475 21-416; P06764 21-256) (receptor),–,–,–,–,1050 nM,0.343 nm,0.00547 s⁻¹,5190 M⁻¹ s⁻¹
HSV2-gE_R320T_gI (from UniProt P89475 21-416; P06764 21-256) (receptor),–,–,–,–,606 nM,0.37 nm,0.0042 s⁻¹,6940 M⁻¹ s⁻¹
HSV2-gE_R320V_gI (from UniProt P89475 21-416; P06764 21-256) (receptor),–,–,–,–,469 nM,0.52 nm,0.00425 s⁻¹,9060 M⁻¹ s⁻¹
HSV2-gE_S338E_gI (from UniProt P89475 21-416; P06764 21-256) (receptor),–,–,–,–,348 nM,0.616 nm,0.0043 s⁻¹,12300 M⁻¹ s⁻¹
HSV2-gE_S338G_gI (from UniProt P89475 21-416; P06764 21-256) (receptor),–,–,–,–,339 nM,0.562 nm,0.00438 s⁻¹,12900 M⁻¹ s⁻¹
HSV2-gE_S338L_gI (from UniProt P89475 21-416; P06764 21-256) (receptor),–,–,–,–,439 nM,0.467 nm,0.00223 s⁻¹,5080 M⁻¹ s⁻¹
HSV2-gE_S338T_gI (from UniProt P89475 21-416; P06764 21-256) (receptor),–,–,–,–,186 nM,0.785 nm,0.00254 s⁻¹,13600 M⁻¹ s⁻¹
HSV2-gE_V340A_gI (from UniProt P89475 21-416; P06764 21-256) (receptor),–,–,–,–,474 nM,0.356 nm,0.00422 s⁻¹,8910 M⁻¹ s⁻¹
HSV2-gE_V340M_gI (from UniProt P89475 21-416; P06764 21-256) (receptor),–,–,–,–,278 nM,0.621 nm,0.00399 s⁻¹,14300 M⁻¹ s⁻¹
HSV2-gE_V340P_gI (from UniProt P89475 21-416; P06764 21-256) (receptor),–,–,–,–,321 nM,0.566 nm,0.00465 s⁻¹,14500 M⁻¹ s⁻¹
HSV2-gE_V340Q_gI (from UniProt P89475 21-416; P06764 21-256) (receptor),–,–,–,–,239 nM,0.32 nm,0.00218 s⁻¹,9090 M⁻¹ s⁻¹
HSV2-gE_V340R_gI (from UniProt P89475 21-416; P06764 21-256) (receptor),–,–,–,–,< 0.001 nM,0.201 nm,< 1e-07 s⁻¹,6650 M⁻¹ s⁻¹
